Test [1] concerns the target nucleophosmin/B23 (NPM), papain-released material from Jurkat membrane preparations (Mono-Q pool 85-87) (human) (UniProt P06748). Nature of the test: competitive inhibition of the binding of 125I-labelled NPM to protein H-Sepharose by unlabeled fragment AB.
Test [2] has as its target T1, protein H (COOH-terminally truncated fragment expressed by and purified from E. coli) (Streptococcus pyogenes, UniProt P50470 42-346).
T1 construct: also called recombinant protein H; soluble protein H
T1 sequence: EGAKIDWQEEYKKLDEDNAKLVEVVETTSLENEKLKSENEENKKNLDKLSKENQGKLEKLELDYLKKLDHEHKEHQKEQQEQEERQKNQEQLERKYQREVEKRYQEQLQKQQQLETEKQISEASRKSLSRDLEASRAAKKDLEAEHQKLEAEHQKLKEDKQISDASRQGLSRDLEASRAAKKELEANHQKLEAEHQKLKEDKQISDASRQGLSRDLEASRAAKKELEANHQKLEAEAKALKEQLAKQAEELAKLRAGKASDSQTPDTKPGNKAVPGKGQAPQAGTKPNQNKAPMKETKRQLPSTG
Nature of the test: 35S-labelled in vitro translated peptide applied to protein H-Sepharose, KSCN eluate on SDS-PAGE, autoradiography.

nucleophosmin/B23 (NPM), papain-released material from Jurkat membrane preparations (Mono-Q pool 85-87) (human), sequence (P06748 1-149 limits assumed): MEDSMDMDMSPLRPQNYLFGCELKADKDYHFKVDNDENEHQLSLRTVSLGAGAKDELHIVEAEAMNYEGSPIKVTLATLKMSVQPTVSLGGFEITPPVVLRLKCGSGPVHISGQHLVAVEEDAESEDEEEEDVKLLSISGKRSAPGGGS

Take fragment AB of protein H (peptide): the IC50 (read off the curve) in test [1] stood at 100 pmol.

B1: COOH-terminal fragment of NPM, in vitro translated (peptide)
chain: KVPQKKVKLAADEDDDDDDEEDDDEDDDDDDFDDEEAEEKAPVKKSIRDTPAKNAQKSNQNGKDSKPSSTPRSKGQESFKKQEKTPKTPKGPSSVEDIKAKMQASIEKGGSLPKVEAKFINYVKNCFRMTDQEAIQDLWQWRKSL
notes: domain: COOH-terminal half; also called COOH-terminal peptide; COOH-terminal half of NPM
For B1, the binding result in test [2] was “no binding”.

These data come from patent publication US7176178 (HANSA MEDICAL, dated 2007).
